{"source": "patent US11142588B2", "about": "“Polypeptides which bind C-X-C chemokine receptor type 4 (CXCR4) and methods of treating or reducing the risk of fibrosis and cancer” (AdAlta Limited, priority 2015, dated 2021)", "key": {"Ramos tumor cells [1]": {"test_system": "Ramos tumor cells", "details": "previous report, Kuhne et al 2013; cited from earlier work"}, "Ramos tumor cells [2]": {"test_system": "Ramos tumor cells", "experiment": "Apoptosis assay (annexin V / propidium iodide flow cytometry)", "assay_type": "cell-based, human", "details": "annexin V and propidium iodide double positive, 24 or 72 hours", "experimental": "The ability of an i-body of the invention to induce apoptosis in Ramos tumor cells (a human Burkitt's lymphoma cell line) was examined in an apoptosis assay according to the methods as described in Mishra M et al (2011) J Cell Mol Med 15(11):2462-77. I-bodies were incubated with Ramos cells and examined by flow cytometry after 24 or 72 hours. The cells were stained for annexin V and propidium iodide which are classic markers for apoptosis. Cells which were double positive were assessed to have become apoptotic."}, "CCRF-CEM cells": {"test_system": "CCRF-CEM cells", "experiment": "Immunohistochemistry staining of tumours in spleen and liver of SCID/bg mice", "details": "130 μg/ml", "experimental": "Tissues were fixed in 10% neutral buffered formalin overnight and subsequently transferred into tissue cassettes and placed in 70% ethanol. The tissues were then paraffin embedded. Slides containing 4 μm sections were deparaffinized and hydrated by incubating them in two changes of xylene for five min each, followed by two changes of 100% ethanol for 3 min each, 70% ethanol for 2 min, 50% ethanol for 2 min, and distilled water for 5 min. Antigen retrieval was performed by incubating the slides in 10 mM Citric acid solution (pH 6.0) in an 80° C. oven overnight. The slides were subsequently washed in PBS and permeabilized in 10% methanol containing 0.4% H2O2 for 30 min. […] All slides were subsequently stained with biotinylated anti-His tag antibodies (Miltenyi Biotech) and developed using an HRP-DAB cell and tissue staining kit according to the manufacturer's instructions (R&D systems)."}, "[3]": {"experiment": "Laser induced choroidal neovascularisation model", "assay_type": "in vivo, mouse", "details": "intravitreal, 1 μl up to 20 mg/ml", "experimental": "The laser induced choroidal neovascularisation (CNV) is a well characterised and accepted model of choroidal neovascularisation (Fletcher E L et al. (2011) Prog Mol Biol Transl Sci 100:211-286). It is also a rapid method for determining the efficacy of potential treatments that target angiogenesis and fibrosis. Briefly, up to four laser spots are applied to the posterior eye using a continuous wave photocoagulation laser ([…] diode). The laser energy is high enough to create a break in Bruch's membrane. During the following 7-14 days, growth of blood vessels from the choroid into the retina occurs, and is quantified either immuocytochemically, or using fluorescein angiography.\nMice were treated as below: • Group 1 (n=10): laser both eyes-vehicle in one eye; i-body in the other • Group 2 (n=10): Laser one eye (no i-body); other eye unlasered. • The i-body drug was injected intravitreally in 1 μl volume at a concentration up to 20 mg/ml.\nThe expression of genes associated with angiogenesis and fibrosis was examined. Total RNA was isolated from the retina and RPE/choroidal samples using commercial spin columns (RNeasy, Qiagen, Valencia Calif.). A PCR gene array was used to assess the expression of 84 genes involved angiogenesis or fibrosis (Qiagen). Briefly, total RNA samples from untreated, laser treated eyes and untreated fellow eyes (n=9 each group, each 25 ng) were pooled within their respective treatment groups (3 independent experiments containing 3 pooled samples), reversed transcribed (RT2 first strand, Qiagen) and then underwent pre-amplification of the cDNA target templates (RT2 pre-AMP, Qiagen). Samples were added to a commercial mastermix (RT2 SYBR green mastermix, Qiagen) and amplified for 40 cycles (ABI 7900HT, Life Technologies, Grand Island N.Y.). Three independent arrays were performed for each treatment group. The data were analysed using delata delta Ct (ΔΔCt), expressed as fold change and regulation assessed using an unpaired t-test."}, "[4]": {"test_system": "normal and IPF lung fibroblasts", "experiment": "Wound healing invasion assay of lung fibroblasts", "assay_type": "cell-based, human", "details": "130 μg/ml", "experimental": "To determine the role of CXCR4 and CXCL12 in fibroblast invasion, normal and IPF lung fibroblasts were utilized in a wound healing invasion assay. ImageLock 96 well plates (Essen Bioscience) were coated with 50 μg/ml of Basement membrane extract (BME; Trevigen) for one hour at room temperature. Normal, and fibroblasts generated from lung biopsies of idiopathic pulmonary fibrosis (IPF) patients showing slow progression or rapid progression of the disease were plated (36,000 cells per well) on the BME-coated plates and incubated overnight. […] The BME was allowed to polymerize by incubating the plate at 37° C. for 15 minutes. The plates were then inserted into an IncuCyte Zoom imaging system and images were acquired every 2 hours for approximately 50 hours. Invasion was quantified using IncuCyte software (Essen Bioscience)."}, "[5]": {"test_system": "ACTA2, COL1A1, COL3A1 and FN1 transcripts", "experiment": "qPCR of pro-fibrotic transcripts in lung fibroblasts", "assay_type": "cell-based, human", "details": "130 μg/ml, 48 hours", "experimental": "After 48 hours, RNA was extracted using Trizol reagent and reverse transcribed into cDNA using superscript II reverse transcriptase (Life technology) as previously described (Trujillo et al Sci Transl Med 2010 2; 57ra82). Complementary DNA (cDNA) was subsequently loaded into a Taqman plate and gene expression analysis were performed using predesigned primers for COL1A1, COL3A1, FN1, and aSMA. All Taqman analysis was performed using an Applied Bio system's Viia 7 instrument (Life technology). The results were then exported, normalized to 18s RNA expression and fold change analysis were calculated using Data Assist software (Life technologies)."}, "CCL2 and CCL5 protein": {"test_system": "CCL2 and CCL5 protein", "experiment": "CCL2, CCL5, CXCL12 ELISA of fibroblast conditioned supernatants", "assay_type": "cell-based, human", "details": "48 hours", "text": "Various reports indicate that CXCR4 signals in conjunction with other chemokine receptors, including CCR2."}, "[6]": {"experiment": "Binding to null lipoparticles (off-target control)", "experimental": "(FIGS. 2A-2C, 5A-5C, 11A-11D, 17A-17B) Kinetic binding analysis of selected i-bodies with immobilized CXCR4 lipoparticles were performed at 25° C. using Biacore T200 instrument (GE Healthcare, Uppsala, Sweden). Streptavidin immobilization was performed in 1×HBS-P+ running buffer (10 mM HEPES, 150 mM NaCl, 0.05% [v/v] Tween-20). Amine coupling kit (GE Healthcare) and the instructions therein were utilized for the attachment of Streptavidin (Sigma; diluted to 100 μg/mL in 10 mM sodium acetate buffer pH 4.5) in all four channels on the sensor chip surface simultaneously, resulting in >6,000 RU of Streptavidin being coupled (1 RU=1 pg protein/mm^2). All binding experiments involving lipoparticles were performed with 1×HBS/BSA (10 mM HEPES, 150 mM NaCl, 1 mg/mL BSA) as instrument running buffer. Biotinylated CXCR4 lipoparticles (Integral Molecular, Cat #LEV-101B; 3.6 U/mL as described in WO 2005/042695) were typically diluted 1 in 20 in the running buffer and immobilized onto a Streptavidin containing channel by injecting at […] for 1,800 sec resulting in captured response levels of greater than 2,500 RU. […] In order to determine binding kinetics, serial dilutions (three-fold) of i-bodies diluted in 1×HBS/BSA were injected over immobilized lipoparticles with the association and dissociation phases monitored for 60 sec and 600 sec, respectively. […]"}, "[7]": {"target": "CCR5 positive lipoparticles (Homo sapiens, UniProt P51681)", "sequence (P51681 whole entry)": "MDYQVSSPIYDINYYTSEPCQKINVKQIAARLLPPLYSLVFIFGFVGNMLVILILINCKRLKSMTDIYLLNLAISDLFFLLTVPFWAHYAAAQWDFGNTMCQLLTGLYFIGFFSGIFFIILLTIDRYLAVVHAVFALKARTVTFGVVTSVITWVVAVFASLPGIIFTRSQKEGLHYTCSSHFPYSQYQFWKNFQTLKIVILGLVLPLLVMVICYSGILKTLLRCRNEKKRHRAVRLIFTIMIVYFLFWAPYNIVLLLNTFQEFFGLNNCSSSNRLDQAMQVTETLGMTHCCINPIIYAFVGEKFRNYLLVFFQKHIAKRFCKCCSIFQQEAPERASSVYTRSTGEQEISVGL", "experiment": "ELISA binding to CCR5 positive lipoparticles", "text": "The mutant i-body clones were also examined for binding to CCR5 positive lipoparticles (FIG. 7B)."}, "CXCR4": {"target": "CXCR4 (Homo sapiens, UniProt P61073)", "sequence (P61073 whole entry)": "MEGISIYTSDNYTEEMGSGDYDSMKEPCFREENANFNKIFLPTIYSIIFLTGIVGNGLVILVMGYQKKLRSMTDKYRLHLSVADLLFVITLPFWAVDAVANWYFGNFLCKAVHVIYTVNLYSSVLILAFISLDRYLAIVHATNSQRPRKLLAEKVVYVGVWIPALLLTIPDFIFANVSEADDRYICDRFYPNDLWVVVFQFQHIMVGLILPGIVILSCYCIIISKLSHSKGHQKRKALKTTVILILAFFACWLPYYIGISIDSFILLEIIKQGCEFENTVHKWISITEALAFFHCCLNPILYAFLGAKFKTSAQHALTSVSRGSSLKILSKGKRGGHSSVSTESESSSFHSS", "experiment": "β-arrestin BRET assay, antagonist mode with 100 nM SDF-1", "assay_type": "cell-based", "parameters": "expressed in transfected cells; host or cells: HEK293FT", "details": "various concentrations", "how_it_was_run": "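Ten concentrations of i-body with 100 nM SDF-1 were applied to transiently transfected HEK293FT cells carrying CXCR4/Rluc8 donor and β-arrestin2/Venus acceptor. Emissions at 400-475 and 520-540 nm were read at 37 °C, and the vehicle-subtracted ratio gave the BRET signal (four independent duplicate experiments).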"}}, "note": "Like-named read-outs stand apart in the source and are kept apart here.", "data": [{"molecule": "MDX-1338: human anti-CXCR4 mAb", "values": [{"measurement": "induction of apoptosis in Ramos cells", "setting": "Ramos tumor cells [1]", "value": "able to induce apoptosis"}]}, {"molecule": "AM3-114-6H: AM3-114 with 6 His tag, containing the N-terminal sequence EAEA (protein, left off: small tags and cut ends) EAEALQVDIVPYQGEISVGESKFFLCQVAGSLSGIRISWFSPNGEKLTPNQQRISVVWNDDSSSTLTIYNANIDDAGIYKCVVWRTGGYRHRYLVLGEATVNVKIFQ", "values": [{"measurement": "induction of apoptosis in Ramos cells", "setting": "Ramos tumor cells [2]", "value": "strongly induce apoptosis"}, {"measurement": "staining of CCRF-CEM cells in spleen and liver", "setting": "CCRF-CEM cells", "value": "stained CCRF-CEM cells"}, {"measurement": "pathological angiogenesis / lesion size", "setting": "[3]", "value": "reduces pathological angiogenesis or lesion characteristics"}, {"measurement": "invasion of rapid-IPF (fast progressor) lung fibroblasts", "setting": "[4]", "value": "two out three"}, {"measurement": "invasion of slow-IPF lung fibroblasts", "setting": "[4]", "value": "inhibited invasion"}, {"measurement": "ACTA2, COL1A1, COL3A1 and FN1 transcript expression in slow-IPF lung fibroblasts", "setting": "[5]", "value": "markedly reduced"}, {"measurement": "CCL2 protein in IPF fibroblast conditioned supernatants", "setting": "CCL2 and CCL5 protein", "value": "markedly increased"}]}, {"molecule": "ADCX-272: CXCR4 binding i-body, SEQ ID NO: 14 (protein) LQVDIVPSQGEISVGESKFFLCQVAGHLEVRSISWFSPNGEKLTPNQQRISVVWNDDSSSTLTIYNANIDDAGIYKCVVEQRGRSQSYFSEATVNVKIFQ", "values": [{"measurement": "binding to null lipoparticles", "setting": "[6]", "value": "very little binding"}, {"measurement": "binding to CCR5 positive lipoparticles", "setting": "[7]", "value": "very little binding"}, {"measurement": "β-arrestin activity", "setting": "CXCR4", "value": "some degree of inhibition"}]}]}
